Test results as given in patent publication US20050164925A1 (JOSEPH ANTHONY JAKUBOWSKI AND THURMAN DWIGHT MC KINNEY, published 2005).
Where “and” joins values, the source holds several entries; their conditions need not be identical. Identical values can stand only once. Where no end group is shown, it is not given here.

T1: human GLP-1 receptor (human), P43220
T1 chain: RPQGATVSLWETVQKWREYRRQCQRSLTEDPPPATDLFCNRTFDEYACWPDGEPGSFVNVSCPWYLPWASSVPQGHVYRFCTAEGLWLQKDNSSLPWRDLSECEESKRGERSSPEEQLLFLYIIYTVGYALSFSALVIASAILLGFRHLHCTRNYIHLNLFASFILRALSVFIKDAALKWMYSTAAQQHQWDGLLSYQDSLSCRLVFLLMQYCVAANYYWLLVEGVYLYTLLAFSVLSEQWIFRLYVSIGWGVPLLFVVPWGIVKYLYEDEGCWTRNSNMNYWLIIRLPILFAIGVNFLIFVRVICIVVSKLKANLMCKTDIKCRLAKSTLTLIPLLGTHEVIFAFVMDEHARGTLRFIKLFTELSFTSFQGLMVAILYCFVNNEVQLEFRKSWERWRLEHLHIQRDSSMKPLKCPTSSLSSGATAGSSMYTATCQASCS


Experiments:
human GLP-1 receptor [1] = molecular target: T2, human GLP-1 receptor (Homo sapiens, UniProt P43220); experiment: In vitro potency assay (CRE-BLAM reporter, GLP-1 receptor signaling); assay type: cell-based; details: in vitro potency relative to Val^8-GLP-1(7-37)OH
T2 construct: expressed in transfected cells; host or cells: HEK-293 Aurora CRE-BLAM cells
From the text: The extent of the induction of cAMP levels can then be measured using a cAMP response element which drives the expression of a reporter gene such as luciferase or beta lactamase.
These HEK-293 cells have stably integrated a DNA vector having a cAMP response element (CRE) driving expression of the β-lactamase (BLAM) gene.
The day after seeding, the medium is replaced with plasma free medium.

human GLP-1 receptor [2] = molecular target: human GLP-1 receptor (human, UniProt P43220 24-463); experiment: cell-based or functional assay
[3] = molecular target: T1, human GLP-1 receptor (human), P43220; experiment: cell-based or functional assay

EC50 Relative to Val^8-GLP-1(7-37)OH (relative to Val^8-GLP-1(7-37)OH) [3]	Molecule	also measured
–	Val^8-Glu^22-GLP-1(7-37)OH	potency higher than Val^8-GLP-1(7-37)OH (human GLP-1 receptor [1]): approximately 3 fold
–	Exendin-4	potency higher than Val^8-GLP-1(7-37)OH (human GLP-1 receptor [1]): approximately 5 fold
–	HVEGTYTSDVSSYLEGQAAKEFIAWLVKGX (C-terminal amide (Xaa at position 37 is -NH2)) [Val^8-Tyr^12-GLP-1(7-36)NH2]	EC50 Relative to Val^8-GLP-1(7-37)OH (human GLP-1 receptor [2]): 1.1 relative to Val^8-GLP-1(7-37)OH
4.7	HVEGTFTSDVSSYLEEQAAKEFIAWLVKGRH-OH [Val^8-Glu^22-His^37-GLP-1(7-37)OH]	–
1.1	HVEGTFTSDLSSYLEGQAAKEFIAWLVKGRG-OH [Val^8-Leu^16-GLP-1(7-37)OH]	–
0.5	HVEGTFTSDVSSYLEGQALKEFIAWLVKGRG-OH [Val^8-Leu^25-GLP-1(7-37)OH]	–
2.7	HVEGTYTSDVSSYLEEQAAKEFIAWLVKGRG-OH [Val^8-Tyr^12-Glu^22-GLP-1(7-37)OH]	–
2.8	HVEGTFTSDYSSFLEGQAAKEFIAWLVKGRG-OH [Val^8-Tyr^16-Phe^19-GLP-1(7-37)OH]	–
3.2	HVEGTFTSDVSSWLEEQAAKEFIAWLVKGRG-OH [Val^8-Trp^19-Glu^22-GLP-1(7-37)OH]	–
3.3	HVEGTFTSDISSYLEEQAAKEFIAWLVKGRG-OH [Val^8-Ile^16-Glu^22-GLP-1(7-37)OH]	–
2.5	HVEGTFTSDYSSYLEGQAAKEFIAWLVKGRG-OH [Val^8-Tyr^16-GLP-1(7-37)OH]	–
1.5	HVEGTFTSDVSSFLEEQAAKEFIAWLVKGRG-OH [Val^8-Phe^19-Glu^22-GLP-1(7-37)OH]	–
4.4	HVEGTFTSDWSSYLEEQAVKEFIAWLVKGRG-OH [Val^8-Trp^16-Glu^22-Val^25-GLP-1(7-37)OH]	–
3.2 and 6.6	HVEGTFTSDVSWYLEEQAAKEFIAWLVKGRG-OH [Val^8-Trp^18-Glu^22-GLP-1(7-37)OH]	–
2.8	HVEGTFTSDVSSYLEEQALKEFIAWLVKGRG-OH [Val^8-Glu^22-Leu^25-GLP-1(7-37)OH]	–
4.9 and 4.6	HVEGTFTSDWSSYLEEQAAKEFIAWLVKGRG-OH [Val^8-Trp^16-Glu^22-GLP-1(7-37)OH]	–
2.3	HVEGTFTSDFSSYLEEQAAKEFIAWLVKGRG-OH [Val^8-Phe^16-Glu^22-GLP-1(7-37)OH]	–

EC50 Relative to Val^8-GLP-1(7-37)OH (relative to Val^8-GLP-1(7-37)OH) [3]	Molecule	also measured
2.2	HVEGTFTSDVSSYLEEQAAKAFIAWLVKGRG-OH [Val^8-Glu^22-Ala^27-GLP-1(7-37)OH]	–
1.7	HVEGTWTSDVSSYLEEQAAKEFIAWLVKGRG-OH [Val^8-Trp^12-Glu^22-GLP-1(7-37)OH]	–
4.7 and 3.8 and 3.4	HVEGTFTSDVSSYLEEQAAKEFIAWLIKGRG-OH [Val^8-Glu^22-Ile^33-GLP-1(7-37)OH]	–
5.1 and 5.9	HVEGTFTSDVSYYLEEQAAKEFIAWLVKGRG-OH [Val^8-Tyr^18-Glu^22-GLP-1(7-37)OH]	–
4	HVEGTFTSDVSIYLEEQAAKEFIAWLVKGRG-OH [Val^8-Ile^18-Glu^22-GLP-1(7-37)OH]	–
2.7	HVEGTFTSDVSSYFEEQAAKEFIAWLVKGRG-OH [Val^8-Phe^20-Glu^22-GLP-1(7-37)OH]	–
3.6 and 3.8	HVEGTFTSDYSSYLEEQAAKEFIAWLVKGRG-OH [Val^8-Tyr^16-Glu^22-GLP-1(7-37)OH]	–
1.5	HVEGTYTSDYSSYLEGQAAKEFIAWLVKGRG-OH [Val^8-Tyr^12-Tyr^16-GLP-1(7-37)OH]	–
2.5	HVEGTFTSDVSKYLEEQAAKEFIAWLVKGRG-OH [Val^8-Lys^18-Glu^22-GLP-1(7-37)OH]	–
0.7	HVEGTFTSDVSSYLEGQAAKEFIEWLVKGRG-OH [Val^8-Glu^30-GLP-1(7-37)OH]	–
4.1	HVEGTFTSDWSSYLEEQAAKEFIAWLIKGRG-OH [Val^8-Trp^16-Glu^22-Ile^33-GLP-1(7-37)OH]	–
4.3	HVEGTFTSDLSSYLEEQAAKEFIAWLVKGRG-OH [Val^8-Leu^16-Glu^22-GLP-1(7-37)OH]	–
4.7 and 2.9	HVEGTFTSDVSSYLEEQAVKEFIAWLVKGRG-OH [Val^8-Glu^22-Val^25-GLP-1(7-37)OH]	–
4.3	HVDGIFTSDYSSYLEEQAAKEFIAWLVKGRG-OH [Val^8-Asp^9-Ile^11-Tyr^16-Glu^22-GLP-1(7-37)OH]	–
4.9 and 5.8 and 6.7	HVEGTFTSDVSSYLEEQAVKEFIAWLIKGRG-OH [Val^8-Glu^22-Val^25-Ile^33-GLP-1(7-37)OH]	–
5	HVEGTFTSDWSSYLEEQAVKEFIAWLIKGRG-OH [Val^8-Trp^16-Glu^22-Val^25-Ile^33-GLP-1(7-37)OH]	–
3.5	HVEGTFTSDYSSWLEEQAAKEFIAWLVKGRG-OH [Val^8-Tyr^16-Trp^19-Glu^22-GLP-1(7-37)OH]	–
